Results taken from US20230241258A1 (Bristol-Myers Squibb, published 2023).

Experiments:
[1] = molecular target: T1, human PD-L1 (human, UniProt Q9NZQ7 19-290); assay: cell-based or functional assay
[2] = molecular target: T1, human PD-L1; assay: competition autoradiography on frozen tissue sections; unlabeled A02 at 0.025, 0.25, 2.5 and 25 nM displaces 0.25 nM 18F-DBCO-A02 radioligand
[3] = molecular target: T1, human PD-L1; assay: radioligand cell binding on ice for 1 hour, gamma counter
Procedure: After the incubation period, cell samples were centrifuged at 200×g and the supernatant was discarded. Cell pellets were resuspended in 1 mL PBS+0.5% BSA and the wash procedure repeated for a total of 3 washes. Following the final wash, cells were again centrifuged at 200×g and the supernatant was discarded. The radioactivity of the remaining cell pellets was then measured by gamma counter.

B1: [^18F]-radiolabeled-A02-PEG-DBCO-FPPEGA (designed binder)
chain: EVVAATPTSLLISWSYDGPIDRYYRITYGETGGNSPVQEFTVPPDQKTATISGLKPGVDYTITVYAVRLEEAHYNREFPISINYRTPC
modifications: C-terminal cysteine linked to Maleimide-PEG4-DBCO and clicked to [^18F]-FPPEGA (produced as described in Example 9)
Q: How did the “maximum radiotracer uptake ratio, hPD-L1(+) L2987 vs. hPD-L1(-) HT-29 xenografts” value [1] turn out when B1 was run?
A: Its value is 3.53 ratio.

Q: What about the “radiotracer uptake in PD-L1(+) L2987 xenografts relative to PD-L1(-) HT-29 xenografts, PET in mice, co-injected with 3 mg/kg unlabeled A02 Adnectin” value [1] of the same binder?
A: Its value is 1.04 fold.

Q: What about the “radiotracer uptake in PD-L1(+) L2987 xenografts relative to PD-L1(-) HT-29 xenografts, PET in mice, final 10 minutes of the time-activity curve” value [1] of the same binder?
A: Its value is 3.05 fold.

B2: A02 Adnectin, cold (unlabeled) (designed binder)
chain: EVVAATPTSLLISWSYDGPIDRYYRITYGETGGNSPVQEFTVPPDQKTATISGLKPGVDYTITVYAVRLEEAHYNREFPISINYRTPC
notes: also called unlabeled anti-PD-L1 A02 adnectin
Q: Does B2 bind [2]?
A: Result: binds

B3: [^18F]-E01-4PEG-DBCO-FPPEGA (designed binder)
chain: GVSDVPRDLEVVAATPTSLLISWRAQLSPSFYYRITYGETGGNSPVQEFTVPNDVMTATISGLKPGVDYTITVYAVTTHGVYFYSPISINYRTPC
modifications: C-terminal cysteine thiol linked to Maleimide-PEG4-DBCO, which is clicked to [^18F]-FPPEGA (^18F prosthetic group)
notes: also called ^18F-radiolabeled E01-4PEG-DBCO; ^18F-E01 adnectin radiotracer
Q: How did the “fold cell associated radioactivity, PD-L1-positive L2987 cells over PD-L1-negative HT-29 cells” value [3] turn out when B3 was run?
A: The value was 44.6 fold.
